Measurements as given in doi:10.1101/2021.02.18.431786 (bioRxiv, 2021).

T1: Human ABCG2 (breast cancer resistance protein), wild type, N-terminal Flag tag, reconstituted in nanodiscs (human), Q9UNQ0
T1 chain: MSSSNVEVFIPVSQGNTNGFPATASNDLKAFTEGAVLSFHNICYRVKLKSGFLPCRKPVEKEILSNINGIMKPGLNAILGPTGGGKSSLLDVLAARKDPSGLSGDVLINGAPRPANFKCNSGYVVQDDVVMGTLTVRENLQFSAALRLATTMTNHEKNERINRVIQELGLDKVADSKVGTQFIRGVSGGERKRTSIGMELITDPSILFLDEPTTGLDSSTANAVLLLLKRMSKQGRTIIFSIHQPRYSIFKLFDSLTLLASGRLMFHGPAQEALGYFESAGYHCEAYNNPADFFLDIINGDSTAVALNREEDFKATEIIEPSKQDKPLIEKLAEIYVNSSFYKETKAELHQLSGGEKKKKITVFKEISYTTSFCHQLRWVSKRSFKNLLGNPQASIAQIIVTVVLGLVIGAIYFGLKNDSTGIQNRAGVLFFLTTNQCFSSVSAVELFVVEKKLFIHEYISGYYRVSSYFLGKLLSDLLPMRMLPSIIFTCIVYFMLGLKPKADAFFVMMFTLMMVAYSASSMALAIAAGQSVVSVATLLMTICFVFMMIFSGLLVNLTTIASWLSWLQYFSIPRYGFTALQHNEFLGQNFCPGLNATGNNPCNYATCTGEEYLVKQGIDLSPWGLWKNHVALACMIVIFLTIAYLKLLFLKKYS

B1: Human ABCG2 (breast cancer resistance protein), wild type, N-terminal Flag tag, reconstituted in nanodiscs, Q9UNQ0 1-655 (natural protein)
chain: T1 chain
B2: Fab fragment of the ABCG2-specific monoclonal antibody 5D3 (Fab, V domains shown)
VH: QVQLQESGPGLVKPSQSLSLTCTVTGFSITSDYAWNWIRQFPGKKLEWMGYINFDGGTTYNPSLRGRISITRDTSKNQFFLQLRSVTPEDTATYYCATFYGAKGTLDYWGQGTSVTVSS
VL: DIVLTQSPSSFSVSLGDRVTISCKASGYILNRLAWYQQKPGNAPRLLISGATSLETGFPSRFSGTGSGKDYTLSISSLQTEDVGTYYCQQYWSTPWTFGGGTKLEIR

How the values were obtained:
[1] = target: T1, Human ABCG2 (breast cancer resistance …); test: cryo-EM structure; conditions: remark: other sources report otherwise
[2] = target: Human ABCG2 (breast cancer resistance protein), wild type, N-terminal Flag tag, reconstituted in nanodiscs (human, UniProt Q9UNQ0); test: cryo-EM structure

Binder | stoichiometry N [1] | binding result [2]
B1 | 2 | 
B2 |  | binds
